For one assay, the target named is T1, AMU1114 (Homo sapiens (Human), UniProt P0DOX7 1-214).
T1 construct: Complex of a fusion heavy chain (Fab region linked to a prourokinase mutant) and an antibody light chain; F396 of the heavy chain corresponds to F157 of urokinase
Description: assay not named in the sentence (ELISA of FIG. 5 presumably). The protocol:
(§1) The concentration of each of the human and mouse urokinase receptors was adjusted with PBS to 1 μg/mL. The resultant solution was dispensed in the wells of a 96-well plate in a volume of 50 μL/well, allowed to stand still at room temperature for 90 minutes to immobilize the receptor. To the plate having the receptor immobilized thereon, TBS-T containing 1% BSA was dispensed in a volume of 300 μL/well. The plate was allowed to stand still at room temperature for 60 minutes to block the plate. To the plate blocked, the sample (mutant) adjusted in concentration to 1000 ng/mL, 111.1 ng/mL or 12.3 ng/mL was added in a volume of 50 μL/well and allowed to react at room temperature for 60 minutes. After washing with TBS-T, HRP-conjugated anti-human Kappa chain antibody (Bethyl) diluted with 1% BSA-containing TBS-T to 1/50,000 fold was dispensed in a volume of 50 μL/well and allowed to react at room temperature for 60 minutes. After washing, a TMB (3,3′,5,5′-tetramethylbenzidine) coloring reagent was allowed to react for 15 minutes. The reaction was terminated with 2N H₂SO₄ (30 μL/well). Absorbance at 450 nm was measured.
For orientation: ELISA stands for enzyme-linked immunosorbent assay.

The target in assay [1] is AMU1114 (Δ22-28, F157E) mutant (Homo sapiens (Human), UniProt P0DOX7 1-214). Description: ELISA, receptor immobilized, detection with HRP anti-human Kappa chain antibody; compared with PBS. The protocol:
as §1

1 molecule from patent US20260250366A1 (RIN INSTITUTE, published 2026) can be followed below.

Sequence of AMU1114 (Δ22-28, F157E) mutant (P0DOX7 other isoform, or with tags, fused parts or gaps F157E F157E limits assumed, chain 2 of 2, other chains not shown): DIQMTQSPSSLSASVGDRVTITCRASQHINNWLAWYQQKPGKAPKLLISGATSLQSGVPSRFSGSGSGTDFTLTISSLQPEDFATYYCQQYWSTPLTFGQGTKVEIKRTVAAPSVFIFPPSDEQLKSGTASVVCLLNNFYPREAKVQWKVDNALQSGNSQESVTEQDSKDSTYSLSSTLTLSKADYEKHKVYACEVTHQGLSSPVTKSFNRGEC
T1 sequence (P0DOX7 other isoform, or with tags, fused parts or gaps limits assumed, chain 2 of 2, other chains not shown): as the sequence (P0DOX7 other isoform, or with tags, fused parts or gaps F157E F157E limits assumed, chain 2 of 2, other chains not shown) above

B1: mouse urokinase receptor (receptor)
chain: LQCMQCESNQSCLVEECALGQDLCRTTVLREWQDDRELEVVTRGCAHSEKTNRTMSYRMGSMIISLTETVCATNLCNRPRPGARGRAFPQGRYLECASCTSLDQSCERGREQSLQCRYPTEHCIEVVTLQSTERSLKDEDYTRGCGSLPGCPGTAGFHSNQTFHFLKCCNYTHCNGGPVLDLQSFPPNGFQCYSCEGNNTLGCSSEEASLINCRGPMNQCLVATGLDVLGNRSYTVRGCATASWCQGSHVADSFPTHLNVSVSCCHGSGCNSPTGHHHHHH
notes: Immobilized on the plate at 1 µg/mL
On to B1, for which the binding result (with AMU1114; in assay [1]) was “no binding” in each case.
